Key:
[1] = system: mouse red blood cells (RBCs); test: Hemolysis of erythrocytes; assay type: cell-based; details: up to 10.0 mg mL-1, 37 °C, 12 h, absorbance 540 nm
Description: with 6×105 A549 cells subcutaneously on the right flank for the A549 model. About 2 weeks after implantation, mice with a tumor volume size of 100 mm3 were used for biodistribution and imaging, and mice with a tumor volume size of 50 mm3 for […]
1.3.11 Blood compatibility
Erythrocytes morphologies and aggregation
Erythrocytes were collected from female BALB/c mice, and erythrocytes suspension was prepared by centrifuging the citrated whole blood at 1000 g for 5 min at room temperature. After the plasma and buffy coat layers were removed, the erythrocytes were washed with PBS 3 times. […]
The dried erythrocytes samples were coated with gold and analyzed under a SEM. […]
Erythrocytes were diluted with PBS to prepare the erythrocyte suspension. […] The absorbance of the supernatant was measured with a Microplate Reader at 540 nm, and hemolysis rate was determined using the following […]
Where AS is the absorbance of the sample, A100 is the absorbance of lysed erythrocytes in H2O (a positive control), and A0 is the absorbance of 0% hemolysis in PBS (a negative control). […]
The backs of healthy BALB/c mice were depilated 3 days before treatment to ensure that all injures had recovered. […] The degree of skin response was examined and scored according to Table S5, and Paraffin sections of the skin were stained with hematoxylin and eosin (H&E) according to the manufacturer's instructions.[3] […]

L02 cells = test: Cytotoxicity, CCK-8 assay, L02; assay type: cell-based, human; details: L02 normal cells, 24 h (PDP 24 h and 48 h), CCK-8, n = 3
Description: Academy of Science Cell Bank for Type Culture Collection (Shanghai, China) and cultured in RPMI-1640 medium, supplemented with 10% fetal bovine serum (FBS), penicillin G (100 U mL-1) and streptomycin (100 μg mL-1), and incubated in 5% CO2 […]
1.3.7 In vitro ROS generation
The intracellular ROS generation was analyzed by using a peroxide-sensitive fluorescent probe, 2′, 7′- dichlorofluorescin-diacetate (DCFH-DA, Beyotime, Beijing, China). According to the manufacturer’s instruction, cells (1×10^6 cells per well) were treated SSAs and Ppa at the same concentration of 1 μg Ppa mL-1. […] 20,000 events were collected and Flowjo software was used for quantifying the intensity of fluorescence.
The CCK-8 assay was used to examine the photodynamic therapeutic effect of SSAs on cell viability against three cell lines. […] After 24 h, the spent media was replaced and the cell viability was assessed using the CCK-8 reagent. The absorbance at […] of each well was recorded on a microplate reader. […] IC50 values were calculated by using nonlinear regression in software Graphpad Prism7. The cytotoxicity of SSAs and Ppa with or without laser against A549 cell line was also measured through the same procedure.
(§1) The cytotoxicity of SSAs and PDP without laser irradiation was also measured by […]

4T1 cells = test: Cytotoxicity, CCK-8 assay, 4T1; assay type: cell-based, mouse; details: no light, CCK-8, n = 3
Description: The CCK-8 assay was used to examine the photodynamic therapeutic effect of SSAs on cell viability against three cell lines. 4×103 4T1 cells per well were seeded in a 96-well plate, and then incubated overnight. The cells were treated with different concentrations of Ppa and SSAs at an equivalent Ppa dose. After 24 h incubation, the medium was replaced with fresh one, and the wells were irradiated using a 660 nm laser with 1 J cm−2. After 24 h, the spent media was replaced and the cell viability was assessed using the CCK-8 reagent. The absorbance at […] of each well was recorded on a microplate reader. Untreated cells were served as a control. Results were presented as the average cell viability by following the manufacturer’s instruction. IC50 values were calculated by using nonlinear regression in software Graphpad Prism7. The cytotoxicity of SSAs and Ppa with or without laser against A549 cell line was also measured through the same procedure.
as §1

[2] = Size, PDI and zeta potential by DLS; assay type: physicochemical
Description: (§2) 1.3.2 Size, zeta potential and morphology
(§3) The size, polydispersity index (PDI), correlation coefficient and zeta potential of self-stabilized supramolecular assemblies (PDPP) were measured by DLS, and the morphology and particle size of PDPP were observed under a TEM. […]
(§4) 1.3.3 Colloidal stability
(§5) The colloidal stability of PDPP was assessed by monitoring the change in the size and PDI as a function of time. PDPP were added in H2O, PBS, H2O containing 10% of fetal bovine serum (FBS), and PBS containing 10% of FBS respectively, and these mixtures were incubated at 37℃ in a humidified chamber, and their sizes and PDI were monitored by DLS at a pre-determined time. […]

[3] = Colloidal stability (size and PDI over time by DLS); assay type: physicochemical; details: H2O, PBS, H2O or PBS with 10% FBS, 37 °C, 7 d, n = 3
Description: as §2, §3, §4, §5

[4] = Disassembly behavior in Triton X-100, NaCl or urea (DLS); assay type: physicochemical; details: 1 h incubation, n = 6
Description: as §2
(§6) The size, polydispersity index (PDI), correlation coefficient and zeta potential of self-stabilized supramolecular assemblies (PDPP) were measured by DLS, and the morphology and particle size of PDPP were observed under a TEM. Briefly, PDPP was dissolved in Milli-Q water and ultrasonically dispersed to prepare PDPP solutions at different concentrations (0.1, 0.5, 1.0, 5.0, and 10.0 mg mL-1) for DLS, TEM measurements. Furthermore, the effects of hydrophobic force, ionic interaction, and hydrogen bonding on the supramolecular self-assembly of PDPP were assessed by adding Triton X-100, NaCl, and urea to the PDPP solution with the final concentrations of 1, 5, 10, 20, 50 and 100 mM for Triton X-100, NaCl, and urea. After incubation for 1 h, the size changes of PDPP were recorded by DLS. […]

[5] = Critical assembly concentration (pyrene fluorescence probe); assay type: physicochemical; details: in H2O, pyrene as fluorescence probe
Description: Ppa was dissolved in anhydrous DMSO and then diluted in different concentrations.
The absorbance values of PDPP at 667 nm were obtained and the drug loading was calculated according to the standard absorption curve. Drug loading content (DLC) = (weight of Ppa in PDPP / weight of PDPP) × 100%.
as §2
as §6, with “Briefly, PDPP was dissolved in Milli-Q water and ultrasonically dispersed to prepare PDPP solutions at different concentrations (0.1, 0.5, 1.0, 5.0, and 10.0 mg mL-1) for DLS, TEM measurements.” left out
as §5
The CAC of PDPP was determined by using pyrene as a fluorescence probe. […]
Fluorescence emission spectrum […]

Substance	Hemolysis [1]	Cytotoxicity without laser irradiation (L02 cells)	Cytotoxicity without laser irradiation (4T1 cells)	PDI ([2]; in H2O)	Size ([2]; in H2O) [nm·days]	Zeta Potential ([2]; in H2O) [mV]	PDI ([2]; in H2O+10%FBS)	Size ([2]; in H2O+10%FBS) [nm·days]	Zeta Potential ([2]; in H2O+10%FBS) [mV]	PDI ([2]; in PBS)	Size ([2]; in PBS) [nm·days]	Zeta Potential ([2]; in PBS) [mV]	PDI ([2]; in PBS+10%FBS)	Size ([2]; in PBS+10%FBS) [nm·days]	Zeta Potential ([2]; in PBS+10%FBS) [mV]	Colloidal stability: size and PDI over time [3]	Change in size and PDI after dispersion in NaCl or urea solution ([4]; 1-100 mM NaCl or urea)	Disassembly behavior in Triton solution ([4]; Triton X-100 at a high concentration (1-100 mM tested))	Critical assembly concentration (CAC) [5] [µg/mL]
PEG‐dendritic peptide [PDP]	no hemolysis is observed and detected	no significant cytotoxicity	no significant cytotoxicity	–	–	–	–	–	–	–	–	–	–	–	–	–	–	–	–
PEG‐dendritic peptide‐pyropheophorbide a [PDPP]	–	–	–	0.152±0.036	104.68 ± 15.10	-25.49±0.58	0.167±0.012	96.13 ± 9.72	-13.57±0.85	0.137±0.036	100.38 ± 19.12	-5.28±7.86	0.154±0.013	102.58 ± 8.94	-7.34±0.94	remain unchanged for 7 d	no significant change	disassembly behaviors of PDPP would have occurred	4.85
